The experiment concerns the target human CD64 (high affinity Fc receptor, FCGR1) on cells (human) (UniProt P12314). In words: cell-based or functional assay.

human CD64 (high affinity Fc receptor, FCGR1) on cells (human), sequence (P12314 16-374): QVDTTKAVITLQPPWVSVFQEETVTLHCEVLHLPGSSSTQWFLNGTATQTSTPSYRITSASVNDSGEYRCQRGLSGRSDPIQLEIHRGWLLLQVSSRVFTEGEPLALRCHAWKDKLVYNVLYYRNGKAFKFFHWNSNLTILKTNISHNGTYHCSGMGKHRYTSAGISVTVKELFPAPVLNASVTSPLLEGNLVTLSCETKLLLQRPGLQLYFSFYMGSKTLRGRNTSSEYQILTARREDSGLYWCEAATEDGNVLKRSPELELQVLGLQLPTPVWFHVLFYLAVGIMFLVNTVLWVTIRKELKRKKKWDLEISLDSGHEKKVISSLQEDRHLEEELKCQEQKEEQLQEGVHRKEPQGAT

As for “IgG1-ADC (palivizumab conjugated to MMAF) (antibody)”, the IC50 of cytotoxicity in Ba/F3-pMIY-CD64 cells was 31.8 ng/ml; the IC50 of cytotoxicity in Ba/F3 cells expressing both FLT3 and CD64 was 0.0783 µg/mL; the IC50 of cytotoxicity in CD64 positive leukemia and lymphoma cell lines lay in the range of 0.0128 to 2 µg/mL.

Values taken from patent publication US20250049939A1, “NOVEL FLT3 ANTIBODIES AND ANTIBODY-DRUG-CONJUGATES BASED THEREON, THERAPEUTIC METHODS AND USES THEREOF IN COMBINATION WITH TYROSINE KINASE INHIBITORS” (TUBULIS GmbH, priority 2021, published 2025).
